For 1 substance, stoichiometry N results are on record in article PMC6727741.

The assay has as its target IFT dynein heavy chain (D1bHC) (Chlamydomonas reinhardtii (endogenous in cc4533 and wdr92-1 cells)) (UniProt Q9SMH5). Briefly: SEC.

“IFT dynein heavy chain (D1bHC), Q9SMH5 1-4334” registered a stoichiometry N of 2.
